Measurements taken from PMC5281607.

Assay: whole-cell patch clamp, AITC amplitude and rectification
Conditions: glycan lost; control: vehicle-treated (untreated) cells

B1: TRPA1: tunicamycin 5 μg/ml, 24 h (protein)
parent chain: MKRSLRKMWRPGEKKEPQGVVYEDVPDDTEDFKESLKVVFEGSAYGLQNFNKQKKLKRCDDMDTFFLHYAAAEGQIELMEKITRDSSLEVLHEMDDYGNTPLHCAVEKNQIESVKFLLSRGANPNLRNFNMMAPLHIAVQGMNNEVMKVLLEHRTIDVNLEGENGNTAVIIACTTNNSEALQILLKKGAKPCKSNKWGCFPIHQAAFSGSKECMEIILRFGEEHGYSRQLHINFMNNGKATPLHLAVQNGDLEMIKMCLDNGAQIDPVEKGRCTAIHFAATQGATEIVKLMISSYSGSVDIVNTTDGCHETMLHRASLFDHHELADYLISVGADINKIDSEGRSPLILATASASWNIVNLLLSKGAQVDIKDNFGRNFLHLTVQQPYGLKNLRPEFMQMQQIKELVMDEDNDGCTPLHYACRQGGPGSVNNLLGFNVSIHSKSKDKKSPLHFAASYGRINTCQRLLQDISDTRLLNEGDLHGMTPLHLAAKNGHDKVVQLLLKKGALFLSDHNGWTALHHASMGGYTQTMKVILDTNLKCTDRLDEDGNTALHFAAREGHAKAVALLLSHNADIVLNKQQASFLHLALHNKRKEVVLTIIRSKRWDECLKIFSHNSPGNKCPITEMIEYLPECMKVLLDFCMLHSTEDKSCRDYYIEYNFKYLQCPLEFTKKTPTQDVIYEPLTALNAMVQNNRIELLNHPVCKEYLLMKWLAYGFRAHMMNLGSYCLGLIPMTILVVNIKPGMAFNSTGIINETSDHSEILDTTNSYLIKTCMILVFLSSIFGYCKEAGQIFQQKRNYFMDISNVLEWIIYTTGIIFVLPLFVEIPAHLQWQCGAIAVYFYWMNFLLYLQRFENCGIFIVMLEVILKTLLRSTVVFIFLLLAFGLSFYILLNLQDPFSSPLLSIIQTFSMMLGDINYRESFLEPYLRNELAHPVLSFAQLVSFTIFVPIVLMNLLIGLAVGDIAEVQKHASLKRIAMQVELHTSLEKKLPLWFLRKVDQKSTIVYPNKPRSGGMLFHIFCFLFCTGEIRQEIPNADKSLEMEILKQKYRLKDLTFLLEKQHELIKLIIQKMEIISETEDDDSHCSFQDRFKKEQMEQRNSRWNTVLRAVKAKTHHLEP
  other: channel current: no change
